Results published in patent US8697369B2, “Method for screening a test substance for activating a receptor associated with FGF 21 activity” (National Institute of Advanced Industrial Science and …, priority 2007, dated 2014).

Key:
Format in all cases: cell-based
[1] = molecular target: T1, humanized FGFR3c (hR3c)-expressing BaF3 cells (Homo sapiens, UniProt P22607, A441S/A461E/A470D/A499P/A500N/A559S/A717S/A734V/A765M/C582S/D512S/D516E/D576E/D580N/D722E/D758Q/D785E/DEL405-414/E426D/E447G/E729D/E768D/F566Y/F579Y/F591S/F767L/G446S/G448T/G548D/G773S/G774F/H721N/I440P/I494L/I698V/I726M/INS417HSQMAVHKLAKSI/INS423TV/INS780T/K420R/K464R/K501R/K583H/L398M/L425A/L457Y/L554I/L645I/L752V/M488L/N428S/N434G/N453G/N644H/P401G/P402T/P436L/P502V/P584N/P778R/Q611K/Q775P/R397K/R399K/R416D/R498K/R568Q/S432N/S468P/S578C/S781C/T435V/T450M/T473V/T504K/T581P/T590S/T753A/T757N/V503T/V523I/V642I/V670I/V751I/V754L); test: DNA synthesis in humanized FGFR3c-expressing BaF3 cells; details: humanized FGFR3c only; 10 μg/ml heparin
T1 construct: expressed in transfected cells; host or cells: BaF3 (mouse pro-B) cells; pSRalpha vector
Method: The homology between human FGFR3 and mouse FGFR3 at the amino acid sequence level is 93%. […] The cDNA of humanized FGFR3c was prepared from a commercially available human RNA sample (Takara Bio Inc.) by PCR. The sequence of its intracellular portion was substituted with the sequence of humanized FGFR1, and it was then introduced into an expression vector having an SRalpha promoter (pSRalpha). The FGFR3c expression vector was introduced into BaF3 cells by an electroporation method, so as to obtain FGFR3c-expressing BaF3 cells as G418-resistant clones. In the case of FGFR3c/betaKlotho-co-expressing cells, a betaKlotho expression vector was introduced into the FGFR3c-expressing BaF3 cells, so as to obtain the aforementioned cells as Puromycin-resistant clones. In the presence of heparin, humanized FGF21 was added in various types of concentrations to FGFR3c-expressing cells or FGFR3c/betaKlotho-co-expressing cells, and the amount of DNA synthesized was then measured.

[2] = system: adipocytes differentiated from 3T3-L1 cells; test: GLUT1 mRNA expression in 3T3-L1 cells differentiated into adipocytes; details: various concentrations, 6 hours
Method: It has been reported that FGF21 allows adipocytes to increasingly express glucose transporter 1 (GLUT1). In the present example, as cultured adipocytes, there were used 3T3-L1 cells that are fibroblasts having the ability to differentiate into adipocytes by controlling culture conditions. The cells were cultured in a culture solution of a Dulbecco's modified Eagle medium (DMEM) containing 10% fetal bovine serum (FBS), so as to prepare cells maintaining an undifferentiated property as fibroblasts. The prepared cells were cultured in a test system, and they were allowed to grow to a confluent state. The cells were then left for 2 days. Thereafter, the culture solution was exchanged with DMEM as a culture solution used for differentiation induction, which comprised 10% FBS, 0.25 μM dexamethasone, 0.5 mM methyl isobutyl xanthine, and 5 μg/ml insulin. The cells were cultured for 2 days. […] The term “cells having the properties of adipocytes” is used herein to mean cells, which conduct intracellular metabolism specific to adipocytes and have cytoplasm in which large quantities of fat droplets are accumulated.
FGF21 were added in various types of concentrations to such different types of culture solutions, and the cells were further culture for 6 hours. Thereafter, RNA was extracted, and the copy number of GLUT1 was counted.

[3] = system: control 3T3-L1 fibroblasts; test: GLUT1 mRNA level in control 3T3-L1 fibroblasts (empty vector); details: various concentrations, 6 hours
Method: A betaKlotho expression vector or an empty vector used as a control, into which betaKlotho cDNA had not been inserted, were introduced into 3T3-L1 fibroblasts, and FGF21 was then added in various types of concentrations to a culture solution of the 3T3-L1 fibroblasts. The obtained mixture was cultured for 6 hours. Thereafter, RNA was extracted, and the mRNA level of GLUT1 was then measured.

T1 sequence (P22607 other isoform, or with tags, fused parts or gaps with the stated changes): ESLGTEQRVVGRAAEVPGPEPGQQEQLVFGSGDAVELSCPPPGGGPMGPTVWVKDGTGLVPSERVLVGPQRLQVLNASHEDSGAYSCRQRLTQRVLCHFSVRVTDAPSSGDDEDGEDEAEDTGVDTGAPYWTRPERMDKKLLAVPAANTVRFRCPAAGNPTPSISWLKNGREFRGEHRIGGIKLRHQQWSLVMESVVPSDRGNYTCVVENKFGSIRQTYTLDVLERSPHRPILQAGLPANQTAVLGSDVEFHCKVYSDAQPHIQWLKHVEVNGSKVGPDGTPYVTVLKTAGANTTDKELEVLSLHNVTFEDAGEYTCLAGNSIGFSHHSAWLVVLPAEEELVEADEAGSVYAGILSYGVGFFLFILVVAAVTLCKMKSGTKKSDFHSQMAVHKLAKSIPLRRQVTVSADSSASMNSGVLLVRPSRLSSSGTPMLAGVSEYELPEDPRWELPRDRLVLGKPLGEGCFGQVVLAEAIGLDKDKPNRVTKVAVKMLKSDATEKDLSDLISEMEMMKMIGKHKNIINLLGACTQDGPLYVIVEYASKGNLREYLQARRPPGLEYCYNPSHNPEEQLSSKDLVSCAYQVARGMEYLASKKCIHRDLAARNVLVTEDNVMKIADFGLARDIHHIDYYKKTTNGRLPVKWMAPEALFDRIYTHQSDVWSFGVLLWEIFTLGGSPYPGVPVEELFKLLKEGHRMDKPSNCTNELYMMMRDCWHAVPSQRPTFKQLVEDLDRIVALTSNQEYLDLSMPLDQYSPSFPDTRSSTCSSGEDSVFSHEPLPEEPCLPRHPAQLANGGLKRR

Row | Molecule | amount of DNA synthesized (thymidine incorporation) [1] | expression level of GLUT1 mRNA [2] | mRNA level of GLUT1 [3]
1 | FGF1: conventional FGF used as a control | promoted the DNA synthesis |  | 
2 | FGF21: fibroblast growth factor 21; mouse-derived protein used in Examples 1-7 and 10-13 (protein) AYPIPDSSPLLQFGGQVRQRYLYTDDDQDTEAHLEIREDGTVVGAAHRSPESLLELKALKPGVIQILGVKASRFLCQQPDGALYGSPHFDPEACSFRELLLEDGYNVYQSEAHGLPLRLPQKDSPNQDATSWGPVRFLPMPGLLHEPQDQAGFLPPEPPDVGSSDPLSMVEPLQGRSPSYAS |  | increased | not observed
